Article PMC6719327 (Applied Microbiology and Biotechnology, 2019)
Substitutions are numbered along the chain they refer to. Numbers in names are those of the source.

B1: anti-GPCR (ETaR) antibody 80H4, scFv-Fc, wild type (Fc fusion)
VH: EVQLLESGGGLVQPGGSLRLSCAASGFTFSSYGMSWVRQAPGKGLEWVSAISTNGATAYYADSVKGRFTISRDNSKNTLYLQMNSLRAEDTAVYYCATEKGAMGYWGQGTLVTVSS
VL: DIVMTQTPLSLSVTPGQPASISCRSSQNIVHSTGNTYLEWYLQKPGQSPQLLIYKVSNRFSGVPDRFSGSGSGTDFTLKISRVEAEDVGVYYCFQGSHFPFTFGQGTKVEIK
notes: heavy-chain variable region as in m3; (G4S)3 linker; light-chain variable region as in m3; also called wild-type scFv-Fc; anti-GPCR-scFv-Fc; source: Expi293F, transfected, purified from supernatant (Protein A); not shown: Fc, C-terminal, kept
B2: anti-GPCR (ETaR) antibody 80H4, scFv-Fc, mutant T113A-V64M-N28Y (Fc fusion)
VH: B1 VH with V64M, T113A
VL: B1 VL with N28Y
notes: heavy-chain variable region as in m3; (G4S)3 linker; light-chain variable region as in m3; also called mutant scFv-Fc; source: Expi293F, transfected, purified from supernatant (Protein A); not shown: Fc, C-terminal, kept
B3: anti-GPCR (ETaR) antibody 80H4, scFv-His, mutant T113A-R38Q (scFv, V domains shown)
VH: B1 VH with R38Q, T113A
VL: B1 VL
notes: heavy-chain variable region as in m3; (G4S)3 linker; light-chain variable region as in m3; also called T113A-R38Q scFv-His; source: Expi293F, transfected, purified from supernatant (Ni-NTA); not shown: His tag, C-terminal, kept
B4: anti-GPCR (ETaR) antibody 80H4, scFv-His, mutant R38Q (scFv, V domains shown)
VH: B1 VH with R38Q
VL: B1 VL
notes: heavy-chain variable region as in m3; (G4S)3 linker; light-chain variable region as in m3; source: Expi293F, transfected, purified from supernatant (Ni-NTA); not shown: His tag, C-terminal, kept
B5: anti-GPCR (ETaR) antibody 80H4, full-length, mutant T113A-V64M-N28Y (antibody, V domains shown)
VH: B1 VH with V64M, T113A
VL: B1 VL with N28Y
notes: heavy-chain variable region as the heavy chain of m13; heavy-chain constant region as in m13; light-chain variable region as the light chain of m13; light-chain constant region as in m13; also called T113A-V64M-N28Y mutant full-length antibody; source: Expi293F, heavy and light chains co-expressed, purified from supernatant (Protein A); copies: 2 + 2
B6: anti-GPCR (ETaR) antibody 80H4, full-length, wild type (antibody, V domains shown)
VH: B1 VH
VL: B1 VL
notes: heavy-chain variable region of 80H4; heavy-chain constant region (HC); labelled by anti-human IgG; light-chain variable region of 80H4; light-chain constant region (LC); also called WT; full-length wild-type antibody; source: Expi293F, heavy and light chains co-expressed, purified from supernatant (Protein A); copies: 2 + 2
B7: anti-GPCR (ETaR) antibody 80H4, full-length, mutant S115N-S30R (antibody, V domains shown)
VH: B1 VH with S30R, S115N
VL: B1 VL
notes: heavy-chain variable region as the heavy chain of m13; heavy-chain constant region as in m13; light-chain variable region as the light chain of m13; light-chain constant region as in m13; source: Expi293F, heavy and light chains co-expressed, purified from supernatant (Protein A); copies: 2 + 2
B8: anti-GPCR (ETaR) antibody 80H4, full-length, mutant S115N-S30R-D73H (antibody, V domains shown)
VH: B1 VH with S30R, D73H, S115N
VL: B1 VL
notes: heavy-chain variable region as the heavy chain of m13; heavy-chain constant region as in m13; light-chain variable region as the light chain of m13; light-chain constant region as in m13; also called S115N-D73H-S30R; source: Expi293F, heavy and light chains co-expressed, purified from supernatant (Protein A); copies: 2 + 2
B9: anti-GPCR (ETaR) antibody 80H4, full-length, mutant D73H (antibody, V domains shown)
VH: B1 VH with D73H
VL: B1 VL
notes: as for B7
B10: anti-GPCR (ETaR) antibody 80H4, full-length, mutant with six mutations (S115N-S30R-D73H combined with T113A-V64M-N28Y) (antibody, V domains shown)
VH: B1 VH with S30R, V64M, D73H, T113A, S115N
VL: B1 VL with N28Y
notes: heavy-chain variable region as the heavy chain of m13; heavy-chain constant region as in m13; light-chain variable region as the light chain of m13; light-chain constant region as in m13; also called the mutant with these six mutations; the full-length antibody clone containing the 6 point mutations; source: Expi293F, heavy and light chains co-expressed, purified from supernatant (Protein A); …
B11: anti-GPCR (ETaR) antibody 80H4, scFv-His, wild type (scFv, V domains shown)
VH: B1 VH
VL: B1 VL
notes: heavy-chain variable region of 80H4; (G4S)3 linker; light-chain variable region of 80H4; Order HV-(G4S)3-LV; made with a signal peptide (SP); also called WT; anti-GPCR-scFv-His; source: Expi293F, transfected, purified from supernatant (Ni-NTA); not shown: His tag, C-terminal, kept
B12: anti-GPCR (ETaR) antibody 80H4, scFv-His, mutant T113A-V64M-N28Y (scFv, V domains shown)
VH: B1 VH with V64M, T113A
VL: B1 VL with N28Y
notes: heavy-chain variable region as in m3; (G4S)3 linker; light-chain variable region as in m3; Combination of N28Y and T113A-V64M made by the authors; source: Expi293F, transfected, purified from supernatant (Ni-NTA); not shown: His tag, C-terminal, kept
B13: anti-GPCR (ETaR) antibody 80H4, scFv-His, mutant T113A-V64M (scFv, V domains shown)
VH: B1 VH with V64M, T113A
VL: B1 VL
notes: as for B4
B14: anti-GPCR (ETaR) antibody 80H4, scFv-His, mutant N28Y (scFv, V domains shown)
VH: B1 VH
VL: B1 VL with N28Y
notes: as for B4

The binders below were run against T1, endothelin A receptor (ETaR) (Homo sapiens (assumed), UniProt P25101) (assay: flow cytometry on cells; Ki of purified scFv-Fc on ETaR-expressing cells; tracer and L not told for this format). Conditions: one partner purified.
T1 construct: endothelin A receptor (ETaR), a GPCR; plasmid and cells were gifts from Gmax Biopharm LLC; also called GPCR; ETaR-expressing CHO cells; source: CHO cells stably expressing and displaying ETaR (provided by Gmax Biopharm LLC); on cells, and in vesicles prepared from them
T1 sequence (P25101 21-427): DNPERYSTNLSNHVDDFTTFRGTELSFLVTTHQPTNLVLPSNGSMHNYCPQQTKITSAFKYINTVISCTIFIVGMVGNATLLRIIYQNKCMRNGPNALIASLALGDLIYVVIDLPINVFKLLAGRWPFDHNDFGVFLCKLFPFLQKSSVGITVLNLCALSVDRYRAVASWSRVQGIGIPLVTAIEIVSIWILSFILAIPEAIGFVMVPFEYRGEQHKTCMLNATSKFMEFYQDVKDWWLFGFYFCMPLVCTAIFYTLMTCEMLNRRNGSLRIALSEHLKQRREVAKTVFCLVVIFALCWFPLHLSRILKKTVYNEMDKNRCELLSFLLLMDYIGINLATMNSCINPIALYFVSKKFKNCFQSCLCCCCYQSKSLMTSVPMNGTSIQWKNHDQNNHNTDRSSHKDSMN

Ki [µM]	Binder
0.251	B1
0.0402	B2

What follows are binders tested against T2, ETaR-GFP (UniProt P25101) (assay: flow cytometry on cells; cells expressing ETaR-GFP incubated with purified scFv-His for 30 min, then anti-his-PE antibody (Fig. 4b)). Conditions: one partner purified.
T2 construct: endothelin A receptor (ETaR) with GFP fused to its C-terminus (in cytosol); also called ETaR cells; ETaR-GFP cells; source: CHO cells stably expressing ETaR-GFP (provided by Gmax Biopharm LLC; clone S-33 for vesicles); on cells, and in vesicles prepared from them; not shown: GFP, C-terminal, kept
T2 sequence (P25101 21-427): as above

binding result	Binder
binds	B3
binds	B4

Each binder was assayed against T1, endothelin A receptor (ETaR) (assay: flow cytometry on cells; competition of unlabelled full-length antibodies, obtained similarly as for scFv; L = 13 nM; Ki = IC50/(1 + L/Kd)). Conditions: one partner purified.

Ki [µM]	Binder
0.0156	B5

Target: T1, endothelin A receptor (ETaR)
Assay: as above
Conditions: one partner purified
Remark: another data set of the same source

IC50 [µM]	Ki [µM]	Binder
0.0501	0.0313	B6
0.0224	0.0102	B7
0.016	0.0062	B8
0.0306	0.0157	B9

These binders were tested against T1, endothelin A receptor (ETaR) (assay: flow cytometry on cells; purified full-length antibodies titrated on ETaR-expressing CHO cells as for scFv; PE-conjugated anti-IgG; Kd from the dose-response curve). Conditions: one partner purified.

Kd [µM]	Binder
0.0215	B6
0.0109	B7
0.00827	B8
0.0136	B9

Each binder was assayed against T2, ETaR-GFP (assay: flow cytometry on cells; cells stably expressing ETaR-GFP incubated with purified full-length or scFv-Fc antibodies for 30 min, then PE-conjugated anti-IgG (Fig. 4c, 4d, 5b)). Conditions: one partner purified.

binding result	Binder
binds	B10

Each binder was assayed against T1, endothelin A receptor (ETaR) (assay: flow cytometry on cells; purified scFv-His at 1 to 316 nM on ETaR-expressing CHO cells, 1 h at 4 °C; FITC-conjugated anti-His; Kd from the dose-response curve (GraphPad PRISM 5.0)). Conditions: one partner purified.

Kd [µM]	Binder
0.169	B11
0.0224	B12
0.087	B13
0.0835	B14

These binders were tested against T1, endothelin A receptor (ETaR) (assay: flow cytometry on cells; competition: unlabelled scFv at 0.01 to 316 nM against FITC-labeled wild-type anti-GPCR at L = 150 nM on ETaR-expressing CHO cells, 1 h at 4 °C; Ki = IC50/(1 + L/Kd)). Conditions: one partner purified.

IC50 [µM]	Ki [µM]	Binder
0.568	0.3	B11
0.17	0.0221	B12
0.227	0.0834	B13
0.21	0.0751	B14
